# Assay results as given in patent US20230212222A1 (ANYGEN CO., LTD., priority 2020, published 2023).
# Numbered stars: 1 amine (or outer) side, 2 acyl side, 3 side chain; on linkers, the order of the positions; unused ones are H or OH. Square brackets hold non-standard residues; d marks the D form. Ends that are not written are not given here. * marks the point of attachment. DAMP‑2 = His whose imidazole is a 1,3-bis(2-cyclohexylethyl)-2,3-dihydro-1H-imidazol-4-yl group, O=C([C@H](CC1=CN(CCC2CCCCC2)CN1CCC1CCCCC1)N[*:1])[*:2]; DAMP‑3 = His whose imidazole is a 1,3-diphenethyl-2,3-dihydro-1H-imidazol-4-yl group, O=C([C@H](CC1=CN(CCc2ccccc2)CN1CCc1ccccc1)N[*:1])[*:2]; 1,2‑diphenyl = His whose imidazole is a 1,2-diphenyl-1H-imidazol-4-yl group, O=C([C@H](Cc1cn(-c2ccccc2)c(-c2ccccc2)n1)N[*:1])[*:2]; tbm = (2'-(1H-tetrazol-5-yl)-[1,1'-biphenyl]-4-yl)methyl on the histidine imidazole nitrogen, c1ccc(-c2nn[nH]n2)c(-c2ccc(C*)cc2)c1; 2‑(4-tert-butyl)phenyl = His carrying a 2-(4-tert-butylphenyl) group on the imidazole (imidazole C2), CC(C)(C)c1ccc(*)cc1; DAMP‑5 = His whose imidazole is a 3-(2-cyclohexylethyl)-2,3-dihydro-1H-imidazol-4-yl group; thiophene = His carrying a thiophen-2-yl group on the imidazole (imidazole C2), c1csc(*)c1; 1‑phenyl = His whose imidazole is a 1-phenyl-1H-imidazol-4-yl group, c1ccc(*)cc1; 2‑phenyl = His whose imidazole is a 2-phenyl-1H-imidazol-4-yl group; 4‑methoxylbenzhydryl = COc1ccc(C(c2ccccc2)*)cc1; Biotin = O=C1N[C@H]2[C@H](CS[C@H]2CCCCC(=O)*)N1; dPhe(4-CF3) = N[C@H](Cc1ccc(C(F)(F)F)cc1)C(=O)O; Fm = 9H-fluoren-9-yl, c1ccc2c(c1)-c1ccccc1C2*; 1‑(4-tert-butyl)phenyl = CC(C)(C)c1ccc(*)cc1; dPhe(4-Cl) = N[C@H](Cc1ccc(Cl)cc1)C(=O)O; dPhe(4-Me) = Cc1ccc(C[C@@H](N)C(=O)O)cc1; Trt = c1ccc(C(c2ccccc2)(c2ccccc2)*)cc1; CH2(1-naphthyl) = c1ccc2c(C*)cccc2c1; Benzhydryl = c1ccc(C(c2ccccc2)*)cc1; 2‑cyclohexylethyl = C1CCC(CC*)CC1; Tos = Cc1ccc(S(=O)(=O)*)cc1; Octanoyl = CCCCCCCC(=O)*
# T1: GPR39 (G protein-coupled receptor 39) (Homo sapiens (Human), UniProt O43194 1-453)
# T1 sequence: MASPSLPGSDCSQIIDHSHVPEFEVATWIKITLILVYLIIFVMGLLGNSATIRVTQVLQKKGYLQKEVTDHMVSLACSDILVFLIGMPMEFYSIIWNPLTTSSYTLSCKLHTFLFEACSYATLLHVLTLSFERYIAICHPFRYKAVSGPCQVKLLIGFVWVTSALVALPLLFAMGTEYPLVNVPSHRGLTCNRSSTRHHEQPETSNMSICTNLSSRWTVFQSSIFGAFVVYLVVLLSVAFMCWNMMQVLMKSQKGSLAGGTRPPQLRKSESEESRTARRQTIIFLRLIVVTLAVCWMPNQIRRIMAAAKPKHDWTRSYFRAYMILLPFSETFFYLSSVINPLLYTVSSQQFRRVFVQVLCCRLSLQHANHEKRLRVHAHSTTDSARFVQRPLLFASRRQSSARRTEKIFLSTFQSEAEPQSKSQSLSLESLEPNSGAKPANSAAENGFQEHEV
# B1: HKFY-77 (peptide)
# peptide: H(tbm)K(Octanoyl)FY
# modifications: not fully specified (residue 3); printed as His(tbm)-Lys(caprylic)-d-Phe(4-CF3)-Tyr
# Target: T1, GPR39 (G protein-coupled receptor 39)
# Assay: cell-based or functional assay
Binder,EC50 (luciferase reporter) [nM],ECmax (-fold induction over basal)
His(Benzhydryl)-Lys(Octanoyl) [HKFY-79],970,11.2 -fold induction over basal
H(DAMP‑2)K(Octanoyl)FY [HKFY-8],33600,17.3 -fold induction over basal
H(DAMP‑5)K(Octanoyl)FY [HKFY-7],1560,16 -fold induction over basal
H(Trt)K(Octanoyl)[dPhe(4-Cl)]Y [HKFY-13],14,25.7 -fold induction over basal
H(Trt)K(caproic)FYDQQARF [HKFY-56],,14.9 -fold induction over basal
H(1‑(4-tert-butyl)phenyl)K(Octanoyl)[dPhe(4-Me)]Y [HKFY-61],20,9.88 -fold induction over basal
H(Trt)K(Octanoyl)[dF]Y [HKFY-12],35,20.7 -fold induction over basal
H(Trt)K(Octanoyl)[dPhe(4-Cl)][dY] [HKFY-15],98,24.7 -fold induction over basal
H(Benzhydryl)K(Octanoyl)[dPhe(4-Me)][Tyr(3-amino)] [HKFY-70],20,10.1 -fold induction over basal
[dH](Trt)K(Octanoyl)[dPhe(4-Cl)][dY] [HKFY-14],20,20.9 -fold induction over basal
H(DAMP‑3)K(Octanoyl)FY [HKFY-6],68400,15 -fold induction over basal
H(Trt)FYDQQARF (not fully specified; printed as His(trt)-Phe-Tyr-Asp-Gln-Gln-Ala-Arg-Phe) [HKFY-52],56400,15.5 -fold induction over basal
HK(Octanoyl)FY (not fully specified (residue 1)) [HKFY-9],42700,21 -fold induction over basal
H(Trt)K(Octanoyl)[dPhe(4-CF3)]Y [HKFY-76],7,14.2 -fold induction over basal
H(Benzhydryl)K(Octanoyl)[dPhe(4-Me)][Tyr(3-chloro)] [HKFY-67],43,10.2 -fold induction over basal
Lys(Octanoyl)-Phe-Tyr [HKFY-54],25900,7.8 -fold induction over basal
H(Benzhydryl)K(Octanoyl)[dPhe(4-Me)]Y-NH2 [HKFY-66],11,20.2 -fold induction over basal
"H(Benzhydryl)K(Octanoyl)[dPhe(4-Me)][Tyr(3,5-nitro)] [HKFY-69]",15,12.2 -fold induction over basal
H(Fm)K(Octanoyl)FY [HKFY-18],2290,10 -fold induction over basal
H(Trt)K(Octanoyl)FY [HKFY-1],150,20.5 -fold induction over basal
H(1‑phenyl)K(Octanoyl)[dPhe(4-Me)]Y [HKFY-58],20,9.12 -fold induction over basal
B1,7,11.6 -fold induction over basal

Binder,EC50 (luciferase reporter) [nM],ECmax (-fold induction over basal)
H(Tos)K(Octanoyl)[dPhe(4-Me)]Y [HKFY-75],1,15.9 -fold induction over basal
H(CH2(1-naphthyl))K(Octanoyl)FY [HKFY-10],46500,14 -fold induction over basal
Biotin-H(Trt)K(Octanoyl)FY [HKFY-2],140,15 -fold induction over basal
H(4‑methoxylbenzhydryl)K(Octanoyl)FY [HKFY-20],159000,20.3 -fold induction over basal
H(2‑cyclohexylethyl)K(Octanoyl)FY [HKFY-11],57800,22 -fold induction over basal
H(thiophene)K(Octanoyl)[dPhe(4-Me)]Y [HKFY-63],6,13.5 -fold induction over basal
Biotin-H(Benzhydryl)K(Octanoyl)[dPhe(4-Me)]Y [HKFY-72],11,10.4 -fold induction over basal
H(4‑methoxybenzhydryl)K(Octanoyl)[dPhe(4-Me)]Y [HKFY-64],7,16 -fold induction over basal
"H(3,3‑diphenylethyl)K(Octanoyl)FY [HKFY-17]",8120,20 -fold induction over basal
"H(1,2‑diphenyl)K(Octanoyl)[dPhe(4-Me)]Y [HKFY-59]",550,6.76 -fold induction over basal
H(2‑phenyl)K(Octanoyl)[dPhe(4-Me)]Y [HKFY-57],260,8.5 -fold induction over basal
H(Trt)[dK](Octanoyl)[dPhe(4-Cl)]Y [HKFY-16],240,27.9 -fold induction over basal
H(2‑(4-tert-butyl)phenyl)K(Octanoyl)[dPhe(4-Me)]Y [HKFY-60],190,28.2 -fold induction over basal
K(Octanoyl)H(Trt)FY [HKFY-55],2490,16.8 -fold induction over basal
H(Trt)GSK(Octanoyl)FY [HKFY-53],340,8 -fold induction over basal
H(Benzhydryl)K(Octanoyl)[dPhe(4-Me)][Tyr(3-nitro)] [HKFY-68],13,10.8 -fold induction over basal
H(phenethyl)K(Octanoyl)FY [HKFY-19],24600,18 -fold induction over basal
H(Trt)K(Octanoyl)LY [HKFY-51],120,14.4 -fold induction over basal
[dH](Benzhydryl)K(Octanoyl)[dPhe(4-Me)]Y [HKFY-62],830,28.1 -fold induction over basal
H(4‑hydroxybenzhydryl)K(Octanoyl)[dPhe(4-Me)]Y [HKFY-65],3,18.3 -fold induction over basal
H(4‑methyltrityl)K(Octanoyl)FY [HKFY-5],1840,16 -fold induction over basal
H(Trt)K(Octanoyl)FS [HKFY-50],700,16.2 -fold induction over basal
